The target of the experiment is RNF111 (Arkadia) (UniProt Q6ZNA4). The experiment can be described thus: proximity ligation assay (PLA). Conditions: ARKL1 KO U2OS cells complemented with HA-ARKL1WT (n = 28), HA-ARKL1SIM* (n = 20) or vector (n = 17); antibodies against HA and RNF111; parent: est. 9.0; read off a plot.
Chain of UniProt Q6ZNA4 (Q6ZNA4 whole entry): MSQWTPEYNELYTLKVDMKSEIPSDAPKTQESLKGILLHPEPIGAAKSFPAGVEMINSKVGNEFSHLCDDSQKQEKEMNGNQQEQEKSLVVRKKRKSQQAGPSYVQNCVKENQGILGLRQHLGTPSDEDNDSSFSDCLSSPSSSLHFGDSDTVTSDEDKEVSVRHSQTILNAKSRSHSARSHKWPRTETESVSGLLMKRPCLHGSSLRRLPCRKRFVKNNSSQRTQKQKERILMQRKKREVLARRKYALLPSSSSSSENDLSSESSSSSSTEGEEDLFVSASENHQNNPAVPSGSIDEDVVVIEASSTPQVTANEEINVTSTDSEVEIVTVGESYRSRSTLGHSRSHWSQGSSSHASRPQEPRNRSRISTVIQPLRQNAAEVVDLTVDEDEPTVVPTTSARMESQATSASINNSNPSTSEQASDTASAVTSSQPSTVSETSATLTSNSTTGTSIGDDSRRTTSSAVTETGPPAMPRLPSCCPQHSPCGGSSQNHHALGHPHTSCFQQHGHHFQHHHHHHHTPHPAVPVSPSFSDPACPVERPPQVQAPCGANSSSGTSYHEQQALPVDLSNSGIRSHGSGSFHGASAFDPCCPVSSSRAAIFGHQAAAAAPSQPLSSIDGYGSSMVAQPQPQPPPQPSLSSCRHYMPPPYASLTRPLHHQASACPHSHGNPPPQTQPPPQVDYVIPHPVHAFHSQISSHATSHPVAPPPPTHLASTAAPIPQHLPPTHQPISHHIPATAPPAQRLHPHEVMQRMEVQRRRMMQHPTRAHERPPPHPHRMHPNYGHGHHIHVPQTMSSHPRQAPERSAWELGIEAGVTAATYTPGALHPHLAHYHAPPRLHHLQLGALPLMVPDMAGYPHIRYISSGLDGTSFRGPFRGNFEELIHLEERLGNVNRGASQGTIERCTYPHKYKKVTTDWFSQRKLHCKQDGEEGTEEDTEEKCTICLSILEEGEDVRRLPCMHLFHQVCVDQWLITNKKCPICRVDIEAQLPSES

Regarding “HA-ARKL1 wild type (from UniProt Q96B23) SIM*”, the response (PLA foci per cell) is 1.

The values above are taken from PMC10542384.
